The subject of one test is PDAC. Particulars: PDAC patients, standard of care; cited from earlier work.
The subject of the next test is PD-L1. Nature of the test: Fold increase in PD-L1 expression with mIFN-γ (flow cytometry). Format: cell-based, murine. Particulars: 40 ng/ml, 24 h. As to the method:
Fold increase in PD-L1 expression and binding specificity of iTPALs: Confluent AT84, LLC, MC38, ID8, CT1BA5 and BMFA3 cells were washed in PBS, trypsinized, and collected in their respective media. The cells were counted and diluted to seed 1.5×10^5 cells per well in a 6 well plate (Corning) overnight. The next day, the media was replaced with fresh media containing 40 ng/ml of mIFN-γ and incubated for an additional 24 h. The cells were then trypsinized, dispersed in their respective media and counted using a cell counter (Bio-Rad). Cells were diluted in their respective media to obtain a concentration of 5×10^5 cells/ml. Then, 100 μl of the counted cells were placed in the 1.5 ml microcentrifuge tubes. To calculate the fold increase in PD-L1 expression, 100 μl of 40 µg/ml α-PD-L1 equivalent of α-PD-L1-AF488 were then added to the cells whereas to monitor the binding specificity of iTPALs (17α), 100 μl of 500 nM BPD-PC equivalent of either 100 μl PALs or TPALs (17α) added to the cells and incubated at 37° C. for 30 mins in the dark. The cells were then pelleted by […] for 5 mins at 1000×g, and the supernatants containing free unbound PALs and iTPALs (17α) were discarded. The cells were then resuspended in 300 μl of FACS buffer and transferred into flow cytometry tubes. For each condition, 10,000 cells were analyzed using a BD Fortessa flow cytometry analyzer with a 405 nm laser/710 nm bandpass detector pair for BPD-PC fluorescence and a 488 nm laser/530 nm detector pair for AF488 fluorescence. The data was then analyzed using FlowJo to calculate the median fluorescence of BPD-PC and AF488. The increase in PD-L1 expression after treating the cells with mIFN-γ was calculated as shown in Equation 1 below and the binding specificity of iTPALs (17α) was calculated as shown in Equation 2 below.

Take FOLFIRINOX: the Overall survival in the test with PDAC is recorded as 11.1 months.

B1: mIFN-γ: mouse Interferon Gamma Protein (Sino Biological) (protein, UniProt P01580 23-155, looked up)
Interferon gamma: HGTVIESLESLNNYFNSSGIDVEEKSLFLDIWRNWQKDGDMKILQSQIISFYLRLFEVLKDNQAISNNISVIESHLITTFFSNSKAKKDAFMSIAKFEVNNPQVQRQAFNELIRVVHQLLPESSLRKRKRSRC
Consider B1, for which the “Increase in PD-L1 expression” value in the test on PD-L1 (AT84 head and neck cancer cells) is recorded as 1.8 fold; with PD-L1 (BMFA3 PDAC cells), 2.5 fold; in the test on PD-L1 (CT1BA5 PDAC cells), 1.5 fold; in the test on PD-L1 (ID8 ovarian cancer cells), 2.9 fold; with PD-L1 (LLC lung cancer cells) it was 1.4 fold; in the test with PD-L1 (MC38 colon cancer cells), 1.8 fold.
